The values that follow come from patent US20260028403A1 (Zymeworks, published 2026).

The assay addresses huCD28 (human, UniProt P10747 19-152, limits assumed). Kind of assay: SPR, OAA format.

B1: v34891 (parental huTN228 OAA) (antibody, V domains shown)
VH: QVQLQESGPGLVKPSETLSLTCAVSGFSLTSYGVHWIRQPPGKGLEWLGVIWPGGGTNFNSALMSRLTISEDTSKNQVSLKLSSVTAADTAVYYCARDRAYGNYLYAMDYWGQGTLVTVSS
VL: DIQMTQSPSSLSASVGDRVTITCRASESVEYYVTSLMQWYQQKPGKAPKLLIYAASNVDSGVPSRFSGSGSGTDFTLTISSLQPEDIATYYCQQSRKVPFTFGGGTKVEIK
notes: one-arm Fab antibody (OAA) format; also called huTN228 parental one-arm Fab antibody
In general, Kd refers to a measure of binding affinity in units of concentration. Higher therefore signals weaker binding. As usually defined, the koff is the first-order rate constant of dissociation. Higher therefore signals a short-lived complex. By kon is commonly meant the second-order rate constant of association. A higher kon goes with fast association. B1: the “Fold-change from WT” value amounted to 1 fold, the Kd worked out at 87.9 nM, the koff stood at 0.00319 s⁻¹ and the kon came to 36300 M⁻¹ s⁻¹.

B2: v37869 (antibody, V domains shown)
VH: QVQLQESGPGLVKPSETLSLTCAVSGFSLTSYGVHWIRQPPGKGLEWLGVIWPGGGTNFNSALMSRLTISEDTSKNQVSLKLSSVTAADTAVYYCARDRAYGNYLYAMDYWGQGTLVTVSS
VL: DIQMTQSPSSLSASVGDRVTITCRASESVEYYATSLMQWYQQKPGKAPKLLIYAASNVDSGVPSRFSGSGSGTDFTLTISSLQPEDIATYYCQQSRKVPFTFGGGTKVEIK
notes: OAA format as v34891; also called huTN228 V1035A (VL) OAA
B2: the “Fold-change from WT” value was determined as 4.9 fold, the Kd stood at 431 nM, the koff stood at 0.0277 s⁻¹ and the on-rate constant (kon) was found to be 67700 M⁻¹ s⁻¹.

B3: v37876 (antibody, V domains shown)
VH: QVQLQESGPGLVKPSETLSLTCAVSGFSLTSYGVHWIRQPPGKGLEWLGVIWPGGGTNFNSALMSRLTISEDTSKNQVSLKLSSVTAADTAVYYCARDRAYGNYLYAMDYWGQGTLVTVSS
VL: DIQMTQSPSSLSASVGDRVTITCRASESVEYYVTSLMQWYQQKPGKAPKLLIYAASNVDAGVPSRFSGSGSGTDFTLTISSLQPEDIATYYCQQSRKVPFTFGGGTKVEIK
notes: OAA format as v34891; also called huTN228 S1069A (VL) OAA
B3: the “Fold-change from WT” value worked out at 0.64 fold, the Kd was 56.4 nM, the koff was 0.00326 s⁻¹ and the on-rate (kon) turned out to be 57800 M⁻¹ s⁻¹.

B4: v37858 (antibody, V domains shown)
VH: QVQLQESGPGLVKPSETLSLTCAVSGFSLTSYGVHWIRQPPGKGLEWLGVIWPGGGTNFNSALMSRLTISEDTSKNQVSLKLSSVTAADTAVYYCARDRAYGNYAYAMDYWGQGTLVTVSS
VL: DIQMTQSPSSLSASVGDRVTITCRASESVEYYVTSLMQWYQQKPGKAPKLLIYAASNVDSGVPSRFSGSGSGTDFTLTISSLQPEDIATYYCQQSRKVPFTFGGGTKVEIK
notes: OAA format as v34891; also called huTN228 L1112AA (VH) OAA
As for B4, the “Fold-change from WT” value turned out to be 3.91 fold, the Kd was 344 nM, the koff is 0.0221 s⁻¹ and the kon stood at 64700 M⁻¹ s⁻¹.

B5: v37843 (antibody, V domains shown)
VH: QVQLQESGPGLVKPSETLSLTCAVSGFSLASYGVHWIRQPPGKGLEWLGVIWPGGGTNFNSALMSRLTISEDTSKNQVSLKLSSVTAADTAVYYCARDRAYGNYLYAMDYWGQGTLVTVSS
VL: DIQMTQSPSSLSASVGDRVTITCRASESVEYYVTSLMQWYQQKPGKAPKLLIYAASNVDSGVPSRFSGSGSGTDFTLTISSLQPEDIATYYCQQSRKVPFTFGGGTKVEIK
notes: OAA format as v34891; also called huTN228 T1035A (VH) OAA
For the molecule B5, the “Fold-change from WT” value was 0.73 fold; the affinity, expressed as Kd, was 64 nM; the koff turned out to be 0.00301 s⁻¹; the kon was found to be 47100 M⁻¹ s⁻¹.

B6: v37868 (antibody, V domains shown)
VH: QVQLQESGPGLVKPSETLSLTCAVSGFSLTSYGVHWIRQPPGKGLEWLGVIWPGGGTNFNSALMSRLTISEDTSKNQVSLKLSSVTAADTAVYYCARDRAYGNYLYAMDYWGQGTLVTVSS
VL: DIQMTQSPSSLSASVGDRVTITCRASESVEYAVTSLMQWYQQKPGKAPKLLIYAASNVDSGVPSRFSGSGSGTDFTLTISSLQPEDIATYYCQQSRKVPFTFGGGTKVEIK
notes: OAA format as v34891; also called huTN228 Y1034A (VL) OAA
On to B6, for which the “Fold-change from WT” value worked out at 5.37 fold, the Kd was 472 nM, the koff is 0.0601 s⁻¹ and the on-rate constant (kon) was 126000 M⁻¹ s⁻¹.

B7: v37874 (antibody, V domains shown)
VH: QVQLQESGPGLVKPSETLSLTCAVSGFSLTSYGVHWIRQPPGKGLEWLGVIWPGGGTNFNSALMSRLTISEDTSKNQVSLKLSSVTAADTAVYYCARDRAYGNYLYAMDYWGQGTLVTVSS
VL: DIQMTQSPSSLSASVGDRVTITCRASESVEYYVTSLMQWYQQKPGKAPKLLIYAASAVDSGVPSRFSGSGSGTDFTLTISSLQPEDIATYYCQQSRKVPFTFGGGTKVEIK
notes: OAA format; also called huTN228 N1066A (VL) OAA
For B7, the “Fold-change from WT” value stood at 0.59 fold, binding was characterised by a dissociation constant (Kd) of 52.1 nM, the koff was determined as 0.00321 s⁻¹ and the kon is 61800 M⁻¹ s⁻¹.

B8: v37851 (antibody, V domains shown)
VH: QVQLQESGPGLVKPSETLSLTCAVSGFSLTSYGVHWIRQPPGKGLEWLGVIWPGGGTAFNSALMSRLTISEDTSKNQVSLKLSSVTAADTAVYYCARDRAYGNYLYAMDYWGQGTLVTVSS
VL: DIQMTQSPSSLSASVGDRVTITCRASESVEYYVTSLMQWYQQKPGKAPKLLIYAASNVDSGVPSRFSGSGSGTDFTLTISSLQPEDIATYYCQQSRKVPFTFGGGTKVEIK
notes: OAA format as v34891; also called huTN228 N1066A (VH) OAA
As for B8, the “Fold-change from WT” value was found to be 4.69 fold, the Kd stood at 412 nM, the koff was 0.037 s⁻¹ and the kon is 90900 M⁻¹ s⁻¹.

B9: v37856 (antibody, V domains shown)
VH: QVQLQESGPGLVKPSETLSLTCAVSGFSLTSYGVHWIRQPPGKGLEWLGVIWPGGGTNFNSALMSRLTISEDTSKNQVSLKLSSVTAADTAVYYCARDRAYGAYLYAMDYWGQGTLVTVSS
VL: DIQMTQSPSSLSASVGDRVTITCRASESVEYYVTSLMQWYQQKPGKAPKLLIYAASNVDSGVPSRFSGSGSGTDFTLTISSLQPEDIATYYCQQSRKVPFTFGGGTKVEIK
notes: OAA format; also called huTN228 N1111AA (VH) OAA
As for B9, the “Fold-change from WT” value turned out to be 6.16 fold, binding was characterised by a dissociation constant (Kd) of 542 nM, the koff amounted to 0.0254 s⁻¹ and the kon was 47100 M⁻¹ s⁻¹.

B10: v37845 (antibody, V domains shown)
VH: QVQLQESGPGLVKPSETLSLTCAVSGFSLTSAGVHWIRQPPGKGLEWLGVIWPGGGTNFNSALMSRLTISEDTSKNQVSLKLSSVTAADTAVYYCARDRAYGNYLYAMDYWGQGTLVTVSS
VL: DIQMTQSPSSLSASVGDRVTITCRASESVEYYVTSLMQWYQQKPGKAPKLLIYAASNVDSGVPSRFSGSGSGTDFTLTISSLQPEDIATYYCQQSRKVPFTFGGGTKVEIK
notes: OAA format; also called huTN228 Y1037A (VH) OAA
Take B10: the “Fold-change from WT” value was 2.81 fold, the Kd is 247 nM, the koff was 0.0139 s⁻¹ and the kon was determined as 56600 M⁻¹ s⁻¹.

B11: v37841 (antibody, V domains shown)
VH: QVQLQESGPGLVKPSETLSLTCAVSGFALTSYGVHWIRQPPGKGLEWLGVIWPGGGTNFNSALMSRLTISEDTSKNQVSLKLSSVTAADTAVYYCARDRAYGNYLYAMDYWGQGTLVTVSS
VL: DIQMTQSPSSLSASVGDRVTITCRASESVEYYVTSLMQWYQQKPGKAPKLLIYAASNVDSGVPSRFSGSGSGTDFTLTISSLQPEDIATYYCQQSRKVPFTFGGGTKVEIK
notes: OAA format as v34891; also called huTN228 S1029A (VH) OAA
Consider B11, for which the “Fold-change from WT” value stood at 0.72 fold, binding was put at a Kd of 63.4 nM, the koff was determined as 0.00322 s⁻¹ and the kon is 51100 M⁻¹ s⁻¹.

B12: v37844 (antibody, V domains shown)
VH: QVQLQESGPGLVKPSETLSLTCAVSGFSLTAYGVHWIRQPPGKGLEWLGVIWPGGGTNFNSALMSRLTISEDTSKNQVSLKLSSVTAADTAVYYCARDRAYGNYLYAMDYWGQGTLVTVSS
VL: DIQMTQSPSSLSASVGDRVTITCRASESVEYYVTSLMQWYQQKPGKAPKLLIYAASNVDSGVPSRFSGSGSGTDFTLTISSLQPEDIATYYCQQSRKVPFTFGGGTKVEIK
notes: OAA format as v34891; also called huTN228 S1036A (VH) OAA
For B12, the “Fold-change from WT” value was 0.7 fold, the Kd amounted to 61.6 nM, the koff came out at 0.00313 s⁻¹ and the kon turned out to be 50800 M⁻¹ s⁻¹.

B13: v37854 (antibody, V domains shown)
VH: QVQLQESGPGLVKPSETLSLTCAVSGFSLTSYGVHWIRQPPGKGLEWLGVIWPGGGTNFNSALMSRLTISEDTSKNQVSLKLSSVTAADTAVYYCARDRAAGNYLYAMDYWGQGTLVTVSS
VL: DIQMTQSPSSLSASVGDRVTITCRASESVEYYVTSLMQWYQQKPGKAPKLLIYAASNVDSGVPSRFSGSGSGTDFTLTISSLQPEDIATYYCQQSRKVPFTFGGGTKVEIK
notes: OAA format as v34891; also called huTN228 Y1110A (VH) OAA
For the molecule B13, the “Fold-change from WT” value is 0.9 fold, the Kd turned out to be 79 nM, the koff came out at 0.0034 s⁻¹ and the kon worked out at 43200 M⁻¹ s⁻¹.

B14: v37875 (antibody, V domains shown)
VH: QVQLQESGPGLVKPSETLSLTCAVSGFSLTSYGVHWIRQPPGKGLEWLGVIWPGGGTNFNSALMSRLTISEDTSKNQVSLKLSSVTAADTAVYYCARDRAYGNYLYAMDYWGQGTLVTVSS
VL: DIQMTQSPSSLSASVGDRVTITCRASESVEYYVTSLMQWYQQKPGKAPKLLIYAASNVASGVPSRFSGSGSGTDFTLTISSLQPEDIATYYCQQSRKVPFTFGGGTKVEIK
notes: OAA format as v34891; also called huTN228 D1068A (VL) OAA
Regarding B14, the “Fold-change from WT” value is 0.53 fold, the Kd was determined as 46.6 nM, the koff was determined as 0.00315 s⁻¹ and the kon turned out to be 67600 M⁻¹ s⁻¹.

B15: v37870 (antibody, V domains shown)
VH: QVQLQESGPGLVKPSETLSLTCAVSGFSLTSYGVHWIRQPPGKGLEWLGVIWPGGGTNFNSALMSRLTISEDTSKNQVSLKLSSVTAADTAVYYCARDRAYGNYLYAMDYWGQGTLVTVSS
VL: DIQMTQSPSSLSASVGDRVTITCRASESVEYYVASLMQWYQQKPGKAPKLLIYAASNVDSGVPSRFSGSGSGTDFTLTISSLQPEDIATYYCQQSRKVPFTFGGGTKVEIK
notes: OAA format as v34891; also called huTN228 T1036A (VL) OAA
Turning to B15, the “Fold-change from WT” value worked out at 3.08 fold, the Kd came out at 271 nM, the koff came out at 0.0258 s⁻¹ and the kon is 96800 M⁻¹ s⁻¹.

B16: v37855 (antibody, V domains shown)
VH: QVQLQESGPGLVKPSETLSLTCAVSGFSLTSYGVHWIRQPPGKGLEWLGVIWPGGGTNFNSALMSRLTISEDTSKNQVSLKLSSVTAADTAVYYCARDRAYANYLYAMDYWGQGTLVTVSS
VL: DIQMTQSPSSLSASVGDRVTITCRASESVEYYVTSLMQWYQQKPGKAPKLLIYAASNVDSGVPSRFSGSGSGTDFTLTISSLQPEDIATYYCQQSRKVPFTFGGGTKVEIK
notes: OAA format as v34891; also called huTN228 G1111A (VH) OAA
Take B16: the “Fold-change from WT” value came to 0.84 fold, the Kd stood at 73.7 nM, the off-rate constant (koff) amounted to 0.00342 s⁻¹ and the kon is 46400 M⁻¹ s⁻¹.

B17: v37847 (antibody, V domains shown)
VH: QVQLQESGPGLVKPSETLSLTCAVSGFSLTSYGVHWIRQPPGKGLEWLGVIWAGGGTNFNSALMSRLTISEDTSKNQVSLKLSSVTAADTAVYYCARDRAYGNYLYAMDYWGQGTLVTVSS
VL: DIQMTQSPSSLSASVGDRVTITCRASESVEYYVTSLMQWYQQKPGKAPKLLIYAASNVDSGVPSRFSGSGSGTDFTLTISSLQPEDIATYYCQQSRKVPFTFGGGTKVEIK
notes: OAA format; also called huTN228 P1058A (VH) OAA
As to B17, the “Fold-change from WT” value stood at 1.39 fold, binding was put at a Kd of 122 nM, the off-rate (koff) was found to be 0.00626 s⁻¹ and the kon came out at 51100 M⁻¹ s⁻¹.
